Assay results published in PMC5759761 (Nature, 2017).

Target: the molecule itself
Assay: cryo-EM structure

B1: E. coli MsbA (natural protein)
chain: MHNDKDLSTWQTFRRLWPTIAPFKAGLIVAGVALILNAASDTFMLSLLKPLLDDGFGKTDRSVLVWMPLVVIGLMILRGITSYVSSYCISWVSGKVVMTMRRRLFGHMMGMPVSFFDKQSTGTLLSRITYDSEQVASSSSGALITVVREGASIIGLFIMMFYYSWQLSIILIVLAPIVSIAIRVVSKRFRNISKNMQNTMGQVTTSAEQMLKGHKEVLIFGGQEVETKRFDKVSNRMRLQGMKMVSASSISDPIIQLIASLALAFVLYAASFPSVMDSLTAGTITVVFSSMIALMRPLKSLTNVNAQFQRGMAACQTLFTILDSEQEKDEGKRVIERATGDVEFRNVTFTYPGRDVPALRNINLKIPAGKTVALVGRSGSGKSTIASLITRFYDIDEGEILMDGHDLREYTLASLRNQVALVSQNVHLFNDTVANNIAYARTEQYSREQIEEAARMAYAMDFINKMDNGLDTVIGENGVLLSGGQRQRIAIARALLRDSPILILDEATSALDTESERAIQAALDELQKNRTSLVIAHRLSTIEKADEIVVVEDGVIVERGTHNDLLEHRGVYAQLHKMQFGQ
  stoichiometry N: 2
